According to US20180170984, “SITE-SPECIFIC DNA BASE EDITING USING MODIFIED APOBEC ENZYMES” (Regents of the University of Minnesota, published 2018):

Assays:
APOBEC3A E72A (1-195) = APOBEC3A E72A (1-195) (Homo sapiens, UniProt P31941 SEQ:1-195, E72A); test: structure; crystal structure 3.15 Å, PDB 5SWW, U-shaped ssDNA, Zn
Description: Purified A3A and A3Bctd* were mixed with ˜1.5 molar excess ssDNA (see below) at a final protein concentration of 25-30 mg ml⁻¹. The A3A-ssDNA complex crystal was obtained in a sitting drop formed by mixing the complex solution with an equal volume of 0.2 M NaF, 20% (w/v) PEG3350, 0.1 M Bis-Tris propane (pH 6.5), equilibrated via vapor diffusion against the same reservoir solution. The A3Bctd*-ssDNA crystal was obtained similarly, using a reservoir solution consisting of 0.45 M NaI and 20% (w/v) PEG3350. The crystals were mounted directly from the Intelli-Plate 96 (Art Robbins Instruments) and flash cooled in liquid nitrogen using glycerol or ethylene glycol as cryo-protectant. X-ray diffraction data were collected at the Advanced Photon Source Northeastern Collaborative Access Team beamline 24-ID-C using the selenium K-absorption edge wavelength, and the data were processed with XDS (Kabsch, Acta Crystallogr D Biol Crystallogr 66:125-132, 2010). The A3A-DNA complex crystal is in the space group of P2221. […] Using monomeric A3A (pdb 4XXO; Bohn et al., Structure 23:903-911, 2015) as a search model, the molecular replacement calculations by PHASER (McCoy et al., J Appl Crystallogr 40:658-674, 2007) located four copies of A3A in the asymmetric unit. […]

APOBEC3A D131A = APOBEC3A D131A (Homo sapiens, UniProt P31941 SEQ:1-199, D131A); test: deamination, 50 nM enzyme, 1 h 37 C; settings: tags: myc-His, 293T; label: 3'-fluorescein
Sequence of APOBEC3A D131A (P31941 whole entry D131A): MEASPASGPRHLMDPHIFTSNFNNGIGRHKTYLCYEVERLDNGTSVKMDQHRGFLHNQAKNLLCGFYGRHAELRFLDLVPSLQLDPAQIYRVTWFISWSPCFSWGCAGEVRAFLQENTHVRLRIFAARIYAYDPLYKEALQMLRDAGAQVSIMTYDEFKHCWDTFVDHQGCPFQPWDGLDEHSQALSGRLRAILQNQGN
Excerpt: (§1) FIGS. 10A-10C provide corroborating biochemical data for human A3A. FIGS. 10A and 10B show DNA cytosine deamination by human A3A (WT, wild-type) and the indicated mutant derivatives (S, substrate; P, product). The corresponding anti-MYC (A3A) and anti-TUBULIN immunoblots indicated similar levels of A3A and soluble extract in each experiment relative to controls (A3A has two bands due to alternative translation initiation from Met1 or Met13). Reactions in FIG. 10A interrogated active site mutants using a 43-nucleotide 5′-TC-containing ssDNA substrate, and reactions in FIG. 10B additionally interrogated the identity of the −1 position (A, C, G, or T) relative to the target cytosine. The results are representative of two independent experiments. FIG. 10C is a series of graphs quantifying product accumulation in dose response experiments for A3A and the indicated D131 derivatives using the same ssDNA substrates as FIG. 10B.
(§2) Recombinant A3A-myc-His and mutant derivatives were expressed in 293T cells and purified as described by nickel affinity chromatography (Stenglein et al., supra; Li et al., supra; and Carpenter et al. 2012, supra). Activity assays were conducted as outlined above, except reactions were initiated by adding 5 μl of enzyme (2-fold dilutions starting at 200 nM) to 5 μl of 50 mM NaCl, 10 mM HEPES buffer (pH 7.4) containing 1.6 μM fluorescently labeled ssDNA (sequences above). Reactions progressed 1 hour at 37° C. and processed and quantified as described above.

APOBEC3A D131E = APOBEC3A D131E (Homo sapiens, UniProt P31941 SEQ:1-199, D131E); test: deamination, 50 nM enzyme, 1 h 37 C; settings: tags: myc-His, 293T; label: 3'-fluorescein
Sequence of APOBEC3A D131E (P31941 whole entry D131E): as the sequence (P31941 whole entry D131A) above, with A131E counted along it
Excerpt: as §1, §2

APOBEC3A wild-type = APOBEC3A wild-type (Homo sapiens, UniProt P31941 SEQ:1-199); test: deamination, 50 nM enzyme, 1 h 37 C; settings: tags: myc-His, 293T; label: 3'-fluorescein
Sequence of APOBEC3A wild-type (P31941 whole entry): as the sequence (P31941 whole entry D131A) above, with A131D counted along it
Excerpt: as §1, §2

APOBEC3A D131T = APOBEC3A D131T (Homo sapiens, UniProt P31941 SEQ:1-199, D131T); test: deamination, 50 nM enzyme, 1 h 37 C; settings: tags: myc-His, 293T; label: 3'-fluorescein
Sequence of APOBEC3A D131T (P31941 whole entry D131T): as the sequence (P31941 whole entry D131A) above, with A131T counted along it
Excerpt: as §1, §2

Sequence of APOBEC3A E72A (1-195) (P31941 1-195 E72A): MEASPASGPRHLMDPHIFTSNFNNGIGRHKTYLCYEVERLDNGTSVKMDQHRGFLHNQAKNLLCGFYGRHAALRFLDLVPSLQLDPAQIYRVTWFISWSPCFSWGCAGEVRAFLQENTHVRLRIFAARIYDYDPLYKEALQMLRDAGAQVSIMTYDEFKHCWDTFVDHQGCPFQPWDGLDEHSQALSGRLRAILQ

| Binder | binding result (APOBEC3A E72A (1-195)) | activity (APOBEC3A D131A) [% product] | activity (APOBEC3A D131E) [% product] | activity (APOBEC3A wild-type) [% product] | activity (APOBEC3A D131T) [% product] |
| --- | --- | --- | --- | --- | --- |
| AAAAAAATCGGGAAA (ssDNA) [A3A crystallization ligand] | binds | – | – | – | – |
| ATTATTATTATTCAAATGGATTTATTTATTTATTTATTTATTT (ssDNA) [-1 TCA substrate] | – | 3.7 | 27.3 | 98.3 | 96.6 |
| ATTATTATTATCCAAATGGATTTATTTATTTATTTATTTATTT (ssDNA) [-1 CCA substrate] | – | 10.1 | – | 42.9 | 67.5 |
| ATTATTATTATACAAATGGATTTATTTATTTATTTATTTATTT (ssDNA) [-1 ACA substrate] | – | 8.7 | 36.6 | 7.6 | 16.6 |
| ATTATTATTATGCAAATGGATTTATTTATTTATTTATTTATTT (ssDNA) [-1 GCA substrate] | – | 4 | 30.8 | 13 | 14.2 |
